Assay results published in article doi:10.1101/2023.06.24.546380.

Tests used:
[1] = target: intracellular domain of the tight junction receptor JAM-A (UniProt Q9Y624)
[2] = target: Zonula occludens scaffold protein ZO1 (UniProt Q07157); assay: partitioning of actin into ZO1 surface condensates on supported lipid bilayers
UniProt Q07157, sequence (Q07157 whole entry): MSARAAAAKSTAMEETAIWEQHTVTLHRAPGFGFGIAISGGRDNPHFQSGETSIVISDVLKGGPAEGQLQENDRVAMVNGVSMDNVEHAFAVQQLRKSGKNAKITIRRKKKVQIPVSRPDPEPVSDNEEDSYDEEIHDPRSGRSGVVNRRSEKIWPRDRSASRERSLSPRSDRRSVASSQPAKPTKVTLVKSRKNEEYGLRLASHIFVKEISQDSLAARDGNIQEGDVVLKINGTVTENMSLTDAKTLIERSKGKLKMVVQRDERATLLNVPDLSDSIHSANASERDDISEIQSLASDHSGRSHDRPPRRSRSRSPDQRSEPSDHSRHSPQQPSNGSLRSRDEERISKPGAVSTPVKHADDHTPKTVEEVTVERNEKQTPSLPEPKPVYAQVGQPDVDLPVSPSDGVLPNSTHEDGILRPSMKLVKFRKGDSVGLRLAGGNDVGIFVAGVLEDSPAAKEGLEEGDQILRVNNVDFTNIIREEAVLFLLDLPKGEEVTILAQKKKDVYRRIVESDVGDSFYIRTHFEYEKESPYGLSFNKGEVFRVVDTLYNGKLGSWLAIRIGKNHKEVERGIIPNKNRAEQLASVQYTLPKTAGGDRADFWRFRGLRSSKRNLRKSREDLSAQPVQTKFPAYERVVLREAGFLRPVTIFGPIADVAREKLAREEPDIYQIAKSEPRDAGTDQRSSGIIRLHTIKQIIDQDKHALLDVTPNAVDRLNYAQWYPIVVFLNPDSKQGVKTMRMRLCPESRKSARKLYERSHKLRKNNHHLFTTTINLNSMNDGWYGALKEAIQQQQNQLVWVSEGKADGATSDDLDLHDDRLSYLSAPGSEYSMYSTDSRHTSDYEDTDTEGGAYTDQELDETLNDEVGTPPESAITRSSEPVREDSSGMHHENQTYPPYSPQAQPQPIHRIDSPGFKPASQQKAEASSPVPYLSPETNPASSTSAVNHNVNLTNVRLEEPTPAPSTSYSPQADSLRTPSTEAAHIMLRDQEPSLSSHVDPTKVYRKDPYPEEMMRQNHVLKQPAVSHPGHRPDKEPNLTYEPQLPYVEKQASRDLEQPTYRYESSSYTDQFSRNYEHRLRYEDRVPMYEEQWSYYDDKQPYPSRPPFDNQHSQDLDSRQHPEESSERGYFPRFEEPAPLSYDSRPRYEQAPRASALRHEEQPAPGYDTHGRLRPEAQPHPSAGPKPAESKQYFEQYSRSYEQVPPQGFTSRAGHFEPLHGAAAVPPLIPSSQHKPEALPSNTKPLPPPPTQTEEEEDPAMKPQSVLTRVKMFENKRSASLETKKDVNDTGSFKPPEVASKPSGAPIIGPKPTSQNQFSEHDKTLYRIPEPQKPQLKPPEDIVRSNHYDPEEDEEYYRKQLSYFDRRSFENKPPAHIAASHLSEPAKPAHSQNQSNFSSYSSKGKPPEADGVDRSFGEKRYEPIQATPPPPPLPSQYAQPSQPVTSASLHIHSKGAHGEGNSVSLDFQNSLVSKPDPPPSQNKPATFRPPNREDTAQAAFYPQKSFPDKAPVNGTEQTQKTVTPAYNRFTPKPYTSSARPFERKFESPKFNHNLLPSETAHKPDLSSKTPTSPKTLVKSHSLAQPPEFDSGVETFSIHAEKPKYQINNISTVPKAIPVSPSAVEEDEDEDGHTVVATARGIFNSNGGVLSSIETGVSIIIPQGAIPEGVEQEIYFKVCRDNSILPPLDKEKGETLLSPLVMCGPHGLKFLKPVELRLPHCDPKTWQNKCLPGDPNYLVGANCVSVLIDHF

UniProt Q9Y624, sequence (Q9Y624 28-299): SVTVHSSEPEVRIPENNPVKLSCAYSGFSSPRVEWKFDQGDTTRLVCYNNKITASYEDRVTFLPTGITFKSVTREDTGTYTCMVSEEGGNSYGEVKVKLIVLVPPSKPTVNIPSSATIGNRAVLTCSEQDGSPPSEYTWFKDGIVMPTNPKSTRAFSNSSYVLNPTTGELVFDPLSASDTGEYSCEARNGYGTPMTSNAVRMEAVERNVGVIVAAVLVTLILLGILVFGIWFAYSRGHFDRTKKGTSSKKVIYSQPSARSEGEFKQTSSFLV

Substance | fold enrichment in the dense ZO1 phase [1] [fold] | fold enrichment in the surface condensates [2] [fold]
Zonula occludens scaffold protein ZO1 (from UniProt Q07157 1-1748) (natural protein) | 2 | 
G-actin-Alexa Fluor 647 (from UniProt P68135 1-377) (natural protein) |  | 5
